The target in one data set is T1, human uPAR (Homo sapiens, UniProt Q03405).
T1 construct: made in house
Kind of data set: Ligand:uPAR interaction in vitro (binding affinity). The following applies: binding affinity towards human uPAR. From the text:
In table 2, the amino acids sequences of each peptid conjugate with the corresponding binding affinity towards human uPAR are shown. Residues in bold is important for the interaction with uPAR. A substitution of two of these important amino acids (Phe^3 and Trp^8) with Glu, results in a complete loss of affinity towards uPAR. […] Importantly, no reduction in affinity is caused by conjugation of DOTA chelator in the N-terminal, illustrated with identical IC50-value between the un-conjugated peptide AE105 and the conjugated form DOTA-AE105.

A short description of data set [1]: Biodistribution in Nude mice bearing HT-29 tumor xenograft (gamma-counter). It is filed as in vivo, NMRI nude mice. As to conditions: female, NMRI nude, mouse, in vivo, iv, total radioactivity. How it is done:
Mice were sacrificed at 0.5, 1.0, 2.0, 4.0 and 24.0 h after injection, and a panel of organs, including blood drawn from the heart, was collected, weighed, and analyzed for radioactive content. Mean percent injected dose per gram (% ID/g)±SEM from three mice at each point is presented. A. Chemical structure of ^177Lu-DOTA-AE105. B(top) Biodistribution of ^177Lu-DOTA-AE105 in selected organs/tissues between 0.5 and 24.0 h. B (bottom). […] HT-29 colorectal cancer cells were obtained from the American Type Culture Collection (Manassas, VA, USA) and culture media was obtained from Invitrogen Co. (Carlsbad, CA, USA). The cell line was cultured in Mc.Coy's standard medium supplemented with 10% (v/v) fetal bovine serum and 1% (v/v) penicillin/Streptomycin at 37° C. and 5% CO2. Xenografts of human HT-29 colorectal cancer cells was established by injection of 200 μl cells (1×10^8 cells/ml) suspended in 100 μl Matrigel (BD Biosciences, San Jose, CA, USA), subcutaneously in the left and right flank of female NMRI nude mice obtained from Taconic, under anesthesia by Hypnorm/doricum (Study day −3). All animal experiments were performed under a protocol approved by the Animal Research Committee of the Danish Ministry of Justice. Biodistribution study was performed as previously described. In brief, Nude mice bearing HT-29 xenografts were injected in the tail-vein with 2-3 MBq of ^177Lu-DOTA-AE105 or ^177Lu-DOTA-AE105mut. All mice were euthanized after 0.5, 1, 2, 4 and 24 hr post tracer injection. Blood, tumor and major organs were collected (wet-weight) and the radioactivity was measured using a γ-counter from Perkin Elmer, MA, USA (N=4 mice/group).

Data set [2] can be described thus: Toxicity in HT-29 therapy study (body weight, kidney H&E, deaths). As to conditions: mouse, in vivo. The class given is in vivo, NMRI nude mice. From the text: Results are presented as the mean±SEM, n=6 animals/group. B, H&E staining of kidney sections representing kidney epithelia (top) and glomerulus (Bottom) from each treatment group. […] One pair of kidneys from one animal/group was stained. Scale bar=25 μm, 40× zoom.
Three days after tumor cell inoculation (study day 0), 18 nude mice bearing the human colorectal carcinoma xenograft HT-29 in each flank were randomly divided into three groups consisting of 6 animals each. All animals in each group were first baseline PET/CT scanned with ^18F-FLT (day 0) before being dosed with 20 MBq of either ^177Lu-DOTA-AE105, ^177Lu-DOTA-AE105mut or vehicle. Subsequently, PET/CT scans of all mice in each group were repeated with ^18F-FLT on study day 1, 3 and 6. Second treatment dose (20 MBq) was administrated on day 7, followed by CT-scan day 8, 10 and 14 to measure tumor volumes using manual ROI drawing on the reconstructed images. On day 14, all animals were euthanized and tumors and kidneys were collected and kept for further analysis at −80° C.
uPAR ELISA on resected HT-29 tumors was done as described previously in detail. All results were performed as duplicate measurements. Expression of uPAR in formalin fixed and paraffin embedded tumor tissue was evaluated by immunohistochemical staining (FIG. 7) as previously published. A general histopathology examination was performed on H&E stained kidney tissue (one pair of kidneys from one animal from each treatment group) and performed by a trained pathologist (ODL).

Residues, ends and D or L forms follow the SMILES beside them.

T1 sequence (Q03405 23-305): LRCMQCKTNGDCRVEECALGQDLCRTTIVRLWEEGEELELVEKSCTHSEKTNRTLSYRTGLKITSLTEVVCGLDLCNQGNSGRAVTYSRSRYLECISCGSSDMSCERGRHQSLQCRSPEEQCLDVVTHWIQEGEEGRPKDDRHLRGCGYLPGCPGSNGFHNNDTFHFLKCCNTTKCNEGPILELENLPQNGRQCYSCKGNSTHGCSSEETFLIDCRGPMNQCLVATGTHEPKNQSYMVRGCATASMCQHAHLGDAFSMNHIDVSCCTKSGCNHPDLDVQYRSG

Consider `CC(C)C[C@H](NC(=O)[C@H](Cc1ccc(O)cc1)NC(=O)[C@@H](CCCNC(=N)N)NC(=O)[C@@H](CO)NC(=O)[C@H](CCC(=O)O)NC(=O)[C@H](CC1CCCCC1)NC(=O)[C@H](CC(=O)O)NC(=O)CN1CCN(CC(=O)O)CCN(CC(=O)O)CCN(CC(=O)O)CC1)C(=O)N[C@@H](CCC(=O)O)C(=O)N[C@@H](CO)C(N)=O` [DOTA-AE105mut, DOTA-Asp-Cha-Glu-(D)Ser-(D)Arg-Tyr-Leu-Glu-Ser-CONH2] (HELM PEPTIDE1{[O=C(O)CN1CCN(CC(=O)O)CCN(CC(=O)[*:2])CCN(CC(=O)O)CC1].D.[Cha].E.[dS].[dR].Y.L.E.S.[am]}$$$$V2.0), for which the IC50 at human uPAR was more than 10 nM.

Consider `CC(C)C[C@H](NC(=O)[C@H](Cc1ccc(O)cc1)NC(=O)[C@@H](CCCNC(=N)N)NC(=O)[C@@H](CO)NC(=O)[C@H](CCC(=O)O)NC(=O)[C@H](CC1CCCCC1)NC(=O)[C@H](CC(=O)O)NC(=O)CN1CCN(CC(=O)O)CCN(CC(=O)O)CCN(CC(=O)O)CC1)C(=O)N[C@@H](CCC(=O)O)C(=O)N[C@@H](CO)C(N)=O` [^177Lu-DOTA-AE105mut, metal not drawn, reference compound] (HELM PEPTIDE1{[O=C(O)CN1CCN(CC(=O)O)CCN(CC(=O)[*:2])CCN(CC(=O)O)CC1].D.[Cha].E.[dS].[dR].Y.L.E.S.[am]}$$$$V2.0), for which the tissue uptake at 0.5 h in data set [1] (% ID/g Blood) stood at 0.959 %ID/g; in data set [1] (% ID/g Bone) it was 0.39 %ID/g; in data set [1] (% ID/g Brain) it was 0.081 %ID/g; in data set [1] (% ID/g Heart) it was 0.278 %ID/g; in data set [1] (% ID/g Intestine) it was 0.2 %ID/g; in data set [1] (% ID/g Kidney), 3.01 %ID/g. Moreover, the tissue uptake at 0.5 h worked out at 0.228 %ID/g in data set [1] (% ID/g Liver), 0.235 %ID/g in data set [1] (% ID/g Muscle), 0.163 %ID/g in data set [1] (% ID/g Spleen) and 0.708 %ID/g in data set [1] (% ID/g Tumor). The “animal body weight between treatment groups” value in data set [2] was “No significant differences in the mean body weights”. Besides, in data set [2], the “kidney histopathology (H&E staining)” value is listed as “no gross macroscopic morphological changes”.

With `CC(C)C[C@H](NC(=O)[C@H](Cc1ccc(O)cc1)NC(=O)[C@@H](CCCNC(=N)N)NC(=O)[C@@H](CO)NC(=O)[C@H](Cc1ccccc1)NC(=O)[C@H](CC1CCCCC1)NC(=O)[C@@H](N)CC(=O)O)C(=O)N[C@@H](Cc1c[nH]c2ccccc12)C(=O)N[C@@H](CO)C(N)=O` [AE105, Asp^1-Cha^2-Phe^3-ser^4-arg^5-Tyr^6-Leu^7-Trp^8-Ser^9], on human uPAR, the IC50 was found to be 6.7 nM.

For the origin of these results see patent US12589171B2, “177-Lu labeled peptide for site-specific uPAR-targeting” (priority 2012, dated 2026).
